Key:
Assay in all cases: co-immunoprecipitation (anti-HA agarose beads), western blot, ImageJ densitometry
Settings in all cases: three independent experiments; parent: est. 0.97; read off a plot
[1] = molecular target: WT-Clocka, FLAG-tagged (zebrafish Clocka, wild type)
[2] = molecular target: Bmal1a-mut, HA-tagged (zebrafish Bmal1a with the four cetacean-specific BMAL1 mutations)
[3] = molecular target: WT-Bmal1a, HA-tagged (zebrafish Bmal1a, wild type)

Substance: WT-Bmal1a, HA-tagged (zebrafish Bmal1a, wild type) D3E; L456P; H461R; M466T
- ratio to parent [1]: 1.2

Substance: m1; m3 Clocka: M724V; S752P; T779A; Bmal1a: D3E; L456P; H461R; M466T
- ratio to parent [2]: 1.6

Substance: WT-Clocka, FLAG-tagged (zebrafish Clocka, wild type) M724V; S752P; T779A
- ratio to parent [3]: 1.6

Source: publication PMC11919277
